Measurements as given in PMC8354476, “Acyl-CoA oxidase ACOX-1 interacts with a peroxin PEX-5 to play roles in larval development of Haemonchus contortus” (PLoS Pathogens, 2021).

Substrate: CCCCCCCCCCCCCCCC(=O)SCCNC(=O)CCNC(=O)[C@H](O)C(C)(C)COP(=O)(O)OP(=O)(O)OC[C@H]1O[C@@H](n2cnc3c(N)ncnc32)[C@H](O)[C@@H]1OP(=O)(O)O
Test: purified protein
Assay type: biochemical, Haemonchus contortus
Settings: 10 μM FAD, 50 mM potassium phosphate
[1] = pH 7.5, 42°C (optimum conditions)

B1: rHc-ACOX-1.2 (Haemonchus contortus) (protein)
chain: MPFRGITVGDIGPKMAYNGVDNGFLAFHHYRIPRNNMLMKHVKVTPDGKYVPPAHAKVGYSAMVHVRAHMISTQAAFLAQALTTAIRYSAIRRQGEIQPGQGEVKILEYQTQQHRLFPQLARAYAFIFTGQAVRVIFQRVQKDVARGKVDEMAKLHYISSGLKAVVTYLTGQGIEQARMSCGGHGYSKASNMSELYGVAIGGATYEGENMVMLQQLARYLMKSAEAAKSGRAVGKLVDYLVRSSEQRSAIDRQPDHDYSAHLKAFDKAAKLQVMKAYERMQSLRAQGLLEEEAWNANAVELNRAARVHTRQYIARTFDEHVKAVVHGPCREVLLDLLHLHLNYELLDMAYYLLEDGYLSGQQLDYMKEDMYRLLARLRPNIVSLVDSWDFSDHELRSVLGRRDGHVYENLYKWAQESELNRTQVLPTFEKYLKPMMKQAREQSKL
notes: N-terminal FLAG tag, pcDNA3.1, expressed in HEK293T cells, purified on anti-FLAG magnetic beads; locus chromosome IV: 9789018-9796292; Glu206 active site; C-terminal PTS1 (SKL)
[1]
  Km: 6.83 µM

B2: rHc-ACOX-1.3 (Haemonchus contortus) (protein)
chain: MPFRGITVGDIGPKMAYNGVDNGFLAFDHYRIPRNNMLMKHVKVTPEGKYVPPAHAKVGYSAMVHVRAHMISTQAAFLAQALTTAIRYSAIRRQGEIQPGRGEVKILEYQTQQHRLFPQLARAYAFIFTGQAVRVIFQRVQKDVARGKVDEMAELHYISSGLKAVVTYLTGQGIEQARMSCGGHGYSKASNMSELYGVAIGGATYEGENMVMLQQLARYLMKSAEAAKNGRAVGKLVDYLVRSSEQRSAIDRKPDHDYTAHLKAFDKAAKLQVMKAYERMQSLRARGLTEEEAWNANAVELNRAARVHTRQYIARTFDEHVKAVVHGPCREVLLDLLYLHLNYELLDMAYYLLEDGYLSGQQMDYMKEDMYRLLARLRPNIVSLVDSWDFSDHELRSVLGRRDGHVYENLYKWAQESELNRTQVLPTFEKYLKPMMKQAREQSKL
notes: N-terminal FLAG tag, pcDNA3.1, expressed in HEK293T cells, purified on anti-FLAG magnetic beads; Glu206 active site; C-terminal PTS1 (SKL)
[1]
  Km: 12.64 µM

B3: rHc-ACOX-1.1 (Haemonchus contortus) (protein)
chain: MPLNKLLRDGDNEDLAEERRKATFDTDEMAAIIWEGKERVRRRREITKKVNEYTELHDPYCQAFMTRHEEVENAARKITKMFSLIDKLGVNPTNAADMAHLTSEVIGLYGHPLALHAVMFIPSLQAQCADDQMHWLKKAMSRQIIGTYAQTELGHGTNLRKLETTATHDANTQEFVLHSPTRTAMKWWPGNLGKSANHAVVVACLIIDGKNYGPHNFIVPLRDPETHMPLKGITVGDIGPKMATGPVDNGFLSFDHYRIPRTNMLMKHAKVTPEGKYIPPAHAKVGYSAMVHVRSHMISDQAKFLAQALTTAIRYSAIRRQGEIQPGDGEVKILEYQTQQYRLLPQLARAYAFSFTGRAVRDLYLRVQKDVAKGKVDEMAELHYITSGLKAVVTHLTGEGISQARMSCGGHGYSKASNMPDLYGIAVADCTYEGENMVMLQQLARYLMRAAGEAEKGRALGRLVNYLVEPSDIHSSIDRQLDYDYKAHLKAFDKAAKLQVMKAYERMRALKAQGLSEEDAWNANAVELNRAARVHTRQYIAHQFYEQVSSVTDGRCREVPRDLLHLHLNYEILDMAYYLLEDGFLSGQQMDYMKEDMYRLLAKLRPNAVSLVDSWDISDHELRSVLGRRDGHVYENLYKWAQESELNRTQVLPTFEKYLKPMMMEAHAQSKL
notes: full-length transcript 2019 nt; N-terminal FLAG tag, pcDNA3.1, expressed in HEK293T cells, purified on anti-FLAG magnetic beads; locus chromosome IV: 9780094-9786809; Thr151, Gly190, Glu433 predicted sites; C-terminal PTS1 (SKL)
pH 7.5, 37°C (optimum conditions)
  Km: 78.79 µM
